Target: T1, B型肉毒毒素抗原 (Clostridium Botulinum, UniProt P10844 2-1291)
T1 sequence: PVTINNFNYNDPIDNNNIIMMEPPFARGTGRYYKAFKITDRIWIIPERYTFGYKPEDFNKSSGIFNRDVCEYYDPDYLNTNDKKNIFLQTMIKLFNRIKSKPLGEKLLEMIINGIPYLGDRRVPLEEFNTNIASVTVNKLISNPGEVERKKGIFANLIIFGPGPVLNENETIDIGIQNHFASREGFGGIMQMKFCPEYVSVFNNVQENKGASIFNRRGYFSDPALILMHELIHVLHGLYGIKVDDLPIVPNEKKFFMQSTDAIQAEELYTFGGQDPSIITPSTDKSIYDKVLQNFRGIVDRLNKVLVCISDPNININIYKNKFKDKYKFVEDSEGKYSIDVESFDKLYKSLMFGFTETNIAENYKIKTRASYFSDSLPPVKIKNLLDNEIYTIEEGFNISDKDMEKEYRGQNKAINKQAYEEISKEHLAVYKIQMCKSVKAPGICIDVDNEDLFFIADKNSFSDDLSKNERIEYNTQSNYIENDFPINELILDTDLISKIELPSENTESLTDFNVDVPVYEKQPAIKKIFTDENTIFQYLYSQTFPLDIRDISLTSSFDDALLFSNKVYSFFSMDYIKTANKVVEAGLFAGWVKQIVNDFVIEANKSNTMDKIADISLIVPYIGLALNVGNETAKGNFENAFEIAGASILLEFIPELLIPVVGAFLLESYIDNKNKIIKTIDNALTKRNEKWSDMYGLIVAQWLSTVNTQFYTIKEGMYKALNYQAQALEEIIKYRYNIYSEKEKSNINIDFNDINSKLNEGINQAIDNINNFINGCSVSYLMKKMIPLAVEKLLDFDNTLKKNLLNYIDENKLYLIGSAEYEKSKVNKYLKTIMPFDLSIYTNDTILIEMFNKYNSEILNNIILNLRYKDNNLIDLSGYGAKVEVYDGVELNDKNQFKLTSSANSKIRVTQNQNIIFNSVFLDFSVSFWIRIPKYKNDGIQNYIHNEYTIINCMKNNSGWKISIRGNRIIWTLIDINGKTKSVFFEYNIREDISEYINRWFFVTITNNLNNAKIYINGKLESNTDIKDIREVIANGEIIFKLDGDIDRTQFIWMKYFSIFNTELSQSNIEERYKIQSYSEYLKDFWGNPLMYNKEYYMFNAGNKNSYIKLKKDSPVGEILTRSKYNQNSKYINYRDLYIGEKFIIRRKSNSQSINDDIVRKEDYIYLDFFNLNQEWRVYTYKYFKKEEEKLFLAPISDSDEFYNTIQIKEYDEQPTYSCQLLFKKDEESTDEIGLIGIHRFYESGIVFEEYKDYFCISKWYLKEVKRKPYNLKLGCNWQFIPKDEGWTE
Experiment: ELISA

B1: 人源抗A型肉毒神经毒素基因工程抗体 HuAb-BNa 单链抗体 (ScFv) (scFv)
scFv: QVQLQESGPGLVKPSETLSLTCTVSGGSISSGSYYWGWIRQPPGKGLEWIGSIYYSGSTYYNPSLKSRVTISVDTSKNQFSLMLSSVTAADTAVYYCARQGSSGYYQNWFDPWGQGTLVTVSSSGGGGSGGGGSGGGGDVVMTQSPGTLSLSPGERATLSCRASQSVSSSYLAWYQQKPGQAPRLLIYGASSRATGIPDRFSGSGSGTDFTLTISRPEPEDFAVYYCQQPGFTFGPGTKVEIKRTVAA
binding result: no binding
